{
  "source": "the RNAGym collection of RNA variant scans (doi:10.1073/pnas.2313332121)",
  "parents": {"B1": {"name": "TPR t1 (parent)", "chain": "GACCAAUCUGCCCUCAGAGCUCGAGAACAUCUUCGGAUGCAGAGGAGGCAGGCUUCGGUGGCGCGAUAGCGCCAACGUCCUCAACCUCCAAUGCAUCCCACCACAUGAUGAUGCCUGAAGAGCCUUGGUUUUUUG"}},
  "data": [
    {"variants_of": "B1", "assay": "polymerase ribozyme fitness, log enrichment relative to wild type (log ratio); higher = more active; in vitro selection for triplet polymerase activity", "outline": "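Libraries of mutants in each subunit of a heterodimeric triplet polymerase ribozyme were generated by PCR and transcribed. In triplicate, each went through one in vitro selection round: annealing with biotinylated primer, partner subunit and triplets; frozen incubation at −7 °C; gel excision of extended constructs; streptavidin-bead capture; RT-PCR. Fitness, taken from Illumina sequencing of input and output libraries, is the logarithm of a genotype's enrichment over wild-type enrichment, averaged across replicates with inverse-variance weights. The logarithm is base 2, and genotypes needed ≥10 input reads and ≥1 read per output to be kept.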", "values": [
      {"variant": "A46U C76G", "polymerase ribozyme fitness (log ratio)": -1.01},
      {"variant": "A46U C79U U96A C115U C123G U132A", "polymerase ribozyme fitness (log ratio)": -2.94},
      {"variant": "A46U C82U", "polymerase ribozyme fitness (log ratio)": -1.14},
      {"variant": "A46U C89U A111U", "polymerase ribozyme fitness (log ratio)": -5.27},
      {"variant": "A46U C94G C98U", "polymerase ribozyme fitness (log ratio)": -4.76},
      {"variant": "A46U C99U", "polymerase ribozyme fitness (log ratio)": -4.49},
      {"variant": "A46U C102U", "polymerase ribozyme fitness (log ratio)": -4.01},
      {"variant": "A46U C104U", "polymerase ribozyme fitness (log ratio)": -0.991},
      {"variant": "A46U C114U", "polymerase ribozyme fitness (log ratio)": -2.76},
      {"variant": "A46U C115U", "polymerase ribozyme fitness (log ratio)": -2.18},
      {"variant": "A46U C124A", "polymerase ribozyme fitness (log ratio)": 0.552},
      {"variant": "A46U G47A G127C", "polymerase ribozyme fitness (log ratio)": -3.12},
      {"variant": "A46U G48A", "polymerase ribozyme fitness (log ratio)": -2.28},
      {"variant": "A46U G48A C79G C82U G120A C123A", "polymerase ribozyme fitness (log ratio)": -3.09},
      {"variant": "A46U G48U C76A U78C C82U", "polymerase ribozyme fitness (log ratio)": -5.9},
      {"variant": "A46U G52U C123A", "polymerase ribozyme fitness (log ratio)": -3.01},
      {"variant": "A46U G52U G71U C123A", "polymerase ribozyme fitness (log ratio)": -2.41},
      {"variant": "A46U G57C A84U C114U", "polymerase ribozyme fitness (log ratio)": -3.16},
      {"variant": "A46U G61A", "polymerase ribozyme fitness (log ratio)": 0.101},
      {"variant": "A46U G61A G110U G120C G122A", "polymerase ribozyme fitness (log ratio)": -4.73},
      {"variant": "A46U G63C", "polymerase ribozyme fitness (log ratio)": -1.29},
      {"variant": "A46U G63C U112C G117C A121U", "polymerase ribozyme fitness (log ratio)": -3.75},
      {"variant": "A46U G69A", "polymerase ribozyme fitness (log ratio)": -3.54},
      {"variant": "A46U G69U", "polymerase ribozyme fitness (log ratio)": -0.372},
      {"variant": "A46U G69U C115A", "polymerase ribozyme fitness (log ratio)": -0.295},
      {"variant": "A46U G71C U78A C86A", "polymerase ribozyme fitness (log ratio)": -1.63},
      {"variant": "A46U G71U", "polymerase ribozyme fitness (log ratio)": -1.16},
      {"variant": "A46U G77C", "polymerase ribozyme fitness (log ratio)": -1.54},
      {"variant": "A46U G110U G120C G122A", "polymerase ribozyme fitness (log ratio)": -5.9},
      {"variant": "A46U G117A", "polymerase ribozyme fitness (log ratio)": -2.21},
      {"variant": "A46U G117A U133G", "polymerase ribozyme fitness (log ratio)": -2.73},
      {"variant": "A46U G135C", "polymerase ribozyme fitness (log ratio)": -1.33},
      {"variant": "A46U G135U", "polymerase ribozyme fitness (log ratio)": -1.71},
      {"variant": "A46U U54G C72A C82A G110U", "polymerase ribozyme fitness (log ratio)": -4.48},
      {"variant": "A46U U55A G69A U125A", "polymerase ribozyme fitness (log ratio)": -4.29},
      {"variant": "A46U U59C G93A U130C", "polymerase ribozyme fitness (log ratio)": -2.04},
      {"variant": "A46U U78C G113A", "polymerase ribozyme fitness (log ratio)": -2.45},
      {"variant": "A46U U92C A100U G113C", "polymerase ribozyme fitness (log ratio)": -4.52},
      {"variant": "A46U U109A", "polymerase ribozyme fitness (log ratio)": -6.04},
      {"variant": "A46U U131C", "polymerase ribozyme fitness (log ratio)": -1.72},
      {"variant": "G47A A50G C115A", "polymerase ribozyme fitness (log ratio)": -1.8},
      {"variant": "G47A A50U", "polymerase ribozyme fitness (log ratio)": -1.57},
      {"variant": "G47A A50U C56A G69U G77C", "polymerase ribozyme fitness (log ratio)": -1.54},
      {"variant": "G47A A50U G60C G77A", "polymerase ribozyme fitness (log ratio)": -5},
      {"variant": "G47A A75G U96C", "polymerase ribozyme fitness (log ratio)": -0.307},
      {"variant": "G47A A90C U112A", "polymerase ribozyme fitness (log ratio)": -2.17},
      {"variant": "G47A A91C G117U U133G", "polymerase ribozyme fitness (log ratio)": -4.6},
      {"variant": "G47A A103C G122A", "polymerase ribozyme fitness (log ratio)": -6.8},
      {"variant": "G47A C49A C124U", "polymerase ribozyme fitness (log ratio)": 0.655},
      {"variant": "G47A C49A U132A", "polymerase ribozyme fitness (log ratio)": -1.53},
      {"variant": "G47A C53U", "polymerase ribozyme fitness (log ratio)": -1.23},
      {"variant": "G47A C53U A118U", "polymerase ribozyme fitness (log ratio)": -0.687},
      {"variant": "G47A C64U G117U", "polymerase ribozyme fitness (log ratio)": -4.27},
      {"variant": "G47A C70U", "polymerase ribozyme fitness (log ratio)": -1.86},
      {"variant": "G47A C72A C86A U96G G117U", "polymerase ribozyme fitness (log ratio)": -4.69},
      {"variant": "G47A C73A U126A", "polymerase ribozyme fitness (log ratio)": -2.35},
      {"variant": "G47A C73U G117U G135U", "polymerase ribozyme fitness (log ratio)": -5.34},
      {"variant": "G47A C76G A90G", "polymerase ribozyme fitness (log ratio)": -0.228},
      {"variant": "G47A C79U", "polymerase ribozyme fitness (log ratio)": -1.59},
      {"variant": "G47A C82G C123G U125A", "polymerase ribozyme fitness (log ratio)": -1.38},
      {"variant": "G47A C85G G113A U132A", "polymerase ribozyme fitness (log ratio)": -2.45},
      {"variant": "G47A C86A A90G G117U G120C", "polymerase ribozyme fitness (log ratio)": -0.329},
      {"variant": "G47A C101U G122A", "polymerase ribozyme fitness (log ratio)": -1.99},
      {"variant": "G47A C102A", "polymerase ribozyme fitness (log ratio)": -2.65},
      {"variant": "G47A C102G", "polymerase ribozyme fitness (log ratio)": -5.8},
      {"variant": "G47A C104A", "polymerase ribozyme fitness (log ratio)": -2.7},
      {"variant": "G47A C114A", "polymerase ribozyme fitness (log ratio)": -2.59},
      {"variant": "G47A C114A C123G U125A", "polymerase ribozyme fitness (log ratio)": -2.46},
      {"variant": "G47A C123A", "polymerase ribozyme fitness (log ratio)": -0.394},
      {"variant": "G47A C123U", "polymerase ribozyme fitness (log ratio)": -0.261},
      {"variant": "G47A C124U", "polymerase ribozyme fitness (log ratio)": 0.0616},
      {"variant": "G47A G48C A100U U112A", "polymerase ribozyme fitness (log ratio)": -0.897},
      {"variant": "G47A G51A", "polymerase ribozyme fitness (log ratio)": -4.37},
      {"variant": "G47A G51A G71U C98U A105U U112G", "polymerase ribozyme fitness (log ratio)": -7.71},
      {"variant": "G47A G51C G77C C80U U87C C124G U131G", "polymerase ribozyme fitness (log ratio)": -1.89},
      {"variant": "G47A G52A G120A", "polymerase ribozyme fitness (log ratio)": -0.716},
      {"variant": "G47A G60A C85G C123U", "polymerase ribozyme fitness (log ratio)": -3.19},
      {"variant": "G47A G60A C124G U133A", "polymerase ribozyme fitness (log ratio)": 1.3},
      {"variant": "G47A G60U C101A", "polymerase ribozyme fitness (log ratio)": -0.894},
      {"variant": "G47A G60U G93C C101A", "polymerase ribozyme fitness (log ratio)": -4.1},
      {"variant": "G47A G61A C85A C98A", "polymerase ribozyme fitness (log ratio)": -6.7},
      {"variant": "G47A G61A U116A U129A", "polymerase ribozyme fitness (log ratio)": -4.01},
      {"variant": "G47A G69U C86A C97U C115U C124G U125C", "polymerase ribozyme fitness (log ratio)": -0.107}
    ]}
  ]
}
